test: yeast display, Sf9 membrane polyspecificity reagent, FACS + sequencing; frameworks hold sequencing errors
Procedure, shortened: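 Sorting gates, low and high (top ~1%), were placed on anti-HA fluorescence to track expression and on streptavidin fluorescence to track reagent binding. A clone's polyreactivity label is taken from the gate it came out of. The reagent was 10% biotinylated, detergent-solubilized Sf9 membrane, applied for 1 hour at 4 °C to galactose-induced yeast display cells.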

Row | Sequence | polyreactivity (PSR sort gate)
1 | QVQLVESGGGLVQAGGSLRLSCADSGSIFAGNAMGWYRQAPGKERELVAAISRRGGSTYYADSVKGRFTISRDNAKNTVYLQMNSLKPEDTAVYYCNALLRYAYHAAYGYWGQGTQVTVSS | high polyreactivity
2 | QVQLVESGGGLVQAGGSLRLSCADSGSIFAYNGMGWKRQAPGKERELVAAISRGGRTSYADSVKGRFTISRDNAKNTVYLQMNSVKPEDTAVYYCNAVYRWFSSAYVYSSGYNGDYWGQGTQVTVSS | high polyreactivity
3 | QVQLVESGGGLVQAGGSLRLSCADSGSIFGYYAMGRYRQAPGKERELVAAISDGGTITYYADSVKGRFTISRDNAKNTVYLQMNSLKPEDTAVYYCAARSPPRYYEHSYYYWGQGTQETVSS | high polyreactivity
4 | QVQLVESGGGLVQAGGSLRLSCADSGSIFQPYAMGWYRQAPGKERELVAAINGRGGSTHYADSVKGRFTISRDNEKNSVYLQMNSLKPEDTAVYDCAARYYRDYRWYTYAYDYWGQGTQVTVSS | high polyreactivity
5 | QVQLVESGGGLVQAGGSLRLSCADSGSIFWGYAMGWYRQAPGKERELVAVISRGGSTYYADSVKGRFTISRDNAKNTVYLQMNSLKPEDTAVYYCAASSSWFYSPEYDYWGQGTQVSVSS | low polyreactivity
6 | QVQLVESGGGLVQAGGSLRLSCADSGSIIGINAMGWYRQAPGKERELVAANNGGGSTYYADSVKGRFTISRDNAKNSVYLQMNSLKPEDTAVYYCAAEWGTSWYDYWGQGTQVTVSS | low polyreactivity
7 | QVQLVESGGGLVQAGGSLRLSCADSGSISYYAIGWYRQAPRKESELVAAISSSGGSTYYADSVNGRFTISRDNAKNTVYLQMNSLKPEDTAVYYCAAAVTGCYASDYWGQGTQVTVSS | high polyreactivity
8 | QVQLVESGGGLVQAGGSLRLSCADSGSTFPWYAMGWYRQAHGKERELVADISFSGGSTYYSDSVKGRFTISRDNAKNTVYLQMNSLKPEDTAVYYCASETSFLRHAYQSDSFDYWGQGTQVTVSS | high polyreactivity
9 | QVQLVESGGGLVQAGGSLRLSCADSGSTFRYNAMGWYREAPGKERELVADIRRSGGSTYYADSVKGRFTISRDKAKNTVYLQMNSLKPEDTAVYYCNAAVSRLYYHSYSYRSYYYWGQGTQVTVSS | high polyreactivity
10 | QVQLVESGGGLVQAGGSLRLSCADSGSTFSYYAMGWYRQAPGKEGELVAAISARGGSTNYADSVKGRFTISRDNAKNTVYLQMNSLKPEDTAVYYCAAYDPLVDYFRYAYSDDYWGQGTQVTVSS | high polyreactivity
11 | QVQLVESGGGLVQAGGSLRLSCADSGSTFVSNTMGWYRQAPGKERELVAAISSSGGSTYYADSVKGRFSISRDNAKNTVYLQMNSLKPEDTAVYYCAAYYRAYRRDYYWGQGTQVTVSS | high polyreactivity
12 | QVQLVESGGGLVQAGGSLRLSCADSGSTFWYDMGWYRQAPGKERELVAAISDAGSTYYADSVKGRFTISRDNAKITVYLQMNSLKPEDTGFYFCAADGVYWRWYLYTFWMDYWGQGTQVTVSS | low polyreactivity
13 | QVQLVESGGGLVQAGGSLRLSCADSGYTFGTYAMGWYIKAPGKERELVAAISNSGGSTYYADSVKGRFTISRDNAKNTVYLQMNSLKPEDTAVYYFNTDGLVRNGPFYSWGLGTQVTVSS | low polyreactivity
14 | QVQLVESGGGLVQAGGSLRLSCADSGYTIILYVMGWYRQAPGKERELVAVITLSGGITYYADSVKGRFTISRDNAKNTVYLQMNSLKPEDTAVYYCAVDVYHNRYFTLTSWYHYDSWGQGTQVTVSS | low polyreactivity
15 | QVQLVESGGGLVQAGGSLRLSCADSRSTFYIYAMGWYRQAPGKERELVAAIRRSGGSTYYADSVKGRFTISRDNAKNTVYLQMISLKPEDTAVYYCATRYLWRPRPYDYWGQGTQVTVSS | high polyreactivity
16 | QVQLVESGGGLVQAGGSLRLSCADYGIIFSPYAMGWYRQAPGKERELVAAISYSGGSTYYADSVKGRFTISRDNAKNTVKLQMNSLKPEDTAVYYCAVVYSYYLAVLGYWDYDYWGQGTQVTVSS | low polyreactivity

Source: the nanobody polyreactivity screen of Harvey et al. (2022)
